From PMC8121366, “Crystal and solution structures reveal oligomerization of individual capsid homology domains of Drosophila Arc” (PLoS ONE, 2021)

T1: Drosophila Arc1 N-lobe (Drosophila)
T1 chain: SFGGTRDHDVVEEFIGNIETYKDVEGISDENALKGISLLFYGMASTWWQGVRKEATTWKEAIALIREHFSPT

B1: Drosophila Arc1 N-lobe (domain or fragment)
chain: T1 chain
modifications: limits inferred from the homologous dArc2-NL construct (6SIB, 37-109), the 8.2 kDa monomer mass and the dArc1-CL start at 123 (6SID); start uncertain by about 1 residue; dimer in solution / limits …
B2: Drosophila Arc2 N-lobe (domain or fragment)
chain: RFSGQRDHDAVDEFINAVETYKEVEGISDKDALKGLPLLFKSIAVVWWKGVRRDAKTWSDALQLLRDHFSPT
notes: monomeric mass 8.4 kDa; Tetramer in solution (SEC-MALS, SAXS); domain-swapped dimer in the crystal; also called dArc2-NL; source: E. coli BL21(DE3), purified (Ni-NTA, TEV cleavage, second Ni-NTA, Superdex S200); not shown: His tag, N-terminal, cleaved; MBP, N-terminal, cleaved
B3: Drosophila Arc1 C-lobe (domain or fragment)
chain: KPAYQIYMEFFQNKQDDHDPIDTFVIQKRALLAQLPSGRHDEETELDLLFGLLNIKYRKHISRHSVHTFKDLLEQGRIIEHNNQED
notes: Arc1 (dArc1) of Drosophila, isolated C-lobe; monomeric mass 11 kDa; Dimer in the crystal and in solution; also called dArc1-CL; source: E. coli BL21(DE3), purified (Ni-NTA, TEV cleavage, second Ni-NTA, amylose resin, Superdex S200); not shown: His tag, N-terminal, cleaved; MBP, N-terminal, cleaved
B4: Drosophila Arc2 C-lobe (domain or fragment)
chain: KPSYQIYMEIFETKQSYDEVIDSFICKQRALLAKLPEGRHDEETELDFIYGLMQPKYRESIPRHEVKTFRELLDRGRTVERTRH
notes: Arc2 (dArc2) of Drosophila, isolated C-lobe; monomeric mass 10 kDa; Dimer in the crystal and in solution; also called dArc2-CL; source: E. coli BL21(DE3), purified (Ni-NTA, TEV cleavage, second Ni-NTA, amylose resin, Superdex S200); not shown: His tag, N-terminal, cleaved; MBP, N-terminal, cleaved

Columns and labels:
Drosophila Arc1 N-lobe = target: T1, Drosophila Arc1 N-lobe; assay: SEC-MALS + other: SAXS; SEC-MALS on Superdex S200 Increase 10/300 in TBS (20 mM Tris-HCl pH 7.4, 150 mM NaCl); SEC-SAXS on Superdex S200 Increase 3.2 in TBS, injected at 5 mg/ml, +10°C; settings: both partners purified
[1] = target: the molecule itself; assay: as above

Binder | stoichiometry N (Drosophila Arc1 N-lobe) | stoichiometry N [1]
B1 | 2 | 
B2 |  | 4
B3 |  | 2
B4 |  | 2
